These results are taken from article PMC9971246, “The activation mechanism and antibody binding mode for orphan GPR20” (Cell Discovery, 2023).

The test concerns the target T1, N-terminal BRIL-fused wild-type human GPR20 (human, UniProt Q99678).
T1 construct: human GPR20, wild type, UniProt Q99678; codon-optimized gene in pFastBac1; Construct order: haemagglutinin signal peptide, Flag tag, BRIL, GPR20, HRV 3C protease site, 10x His; No cleavage with HRV 3C is described; BRIL is written as a carrier under tags, not as a part; also called WT GPR20; ligand-free GPR20; source: Trichuplusia ni Hi5 insect cells (baculovirus), co-expressed with DNGαi and …
The test is described as follows: cryo-EM structure; GPR20-Gi-Fab046 complex, pair of Fab046 and GPR20; TALON eluate (GPR20-Gi complex) mixed with purified Fab046 1:1.5 for 6 h, SEC in 20 mM HEPES pH 7.5, 100 mM NaCl, LMNG/GDN/CHS, 100 μM TCEP; 3.22 Å. The settings on record: both partners purified.

T1 sequence (Q99678 whole entry, the tested form may be a part): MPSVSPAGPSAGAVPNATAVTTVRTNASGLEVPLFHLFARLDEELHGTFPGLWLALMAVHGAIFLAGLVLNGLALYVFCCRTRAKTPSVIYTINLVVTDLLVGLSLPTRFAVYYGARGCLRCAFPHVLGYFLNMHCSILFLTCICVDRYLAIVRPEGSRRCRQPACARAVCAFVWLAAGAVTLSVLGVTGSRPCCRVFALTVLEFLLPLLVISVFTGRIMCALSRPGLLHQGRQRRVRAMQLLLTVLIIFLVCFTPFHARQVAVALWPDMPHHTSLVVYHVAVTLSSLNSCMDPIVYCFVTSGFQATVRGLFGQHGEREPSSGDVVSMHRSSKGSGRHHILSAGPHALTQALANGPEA

B1: Fab046, Fab fragment of the anti-GPR20 antibody Ab046 (Fab, V domains shown)
VH: QVQLQQSGAELAKPGSSVKISCKASGYTFTSYYISWIKQTTGQGLKYIGFINPGSGHTNYNEKFKGKATLTVDKSSSTAFMQLSSLTPDDSAIYYCARGAGGFLRIITKFDYWGQGVMVTVSS
VL: DTVLTQSPALAVSLGQRVTISCRASKSVSTYIHWYQQRSGQQPKLLIYSASNLESGVPSRFSGSGSGTDFTLTIDPVEPDDIANYYCQQINELPYTFGAGTKLELK
notes: modelled in the deposited structures PDB 8HS2 (VH + CH1) and PDB 8HSC (VH); modelled in the deposited structures PDB 8HS2 (intact light chain) and PDB 8HSC (VL); also called IgG046; source: Trichuplusia ni Hi5 insect cells (baculovirus, pFastBacDual), from the supernatant, purified (Ni-NTA, SEC)
For B1, the binding result is “binds”.
